Experimental data published in patent publication US9266964.

Target: human plasma kallikrein (human, UniProt P03952 20-390; P03952 391-638)
Test: cell-based or functional assay

Sequence of human plasma kallikrein (P03952 20-390, chain 1 of 2): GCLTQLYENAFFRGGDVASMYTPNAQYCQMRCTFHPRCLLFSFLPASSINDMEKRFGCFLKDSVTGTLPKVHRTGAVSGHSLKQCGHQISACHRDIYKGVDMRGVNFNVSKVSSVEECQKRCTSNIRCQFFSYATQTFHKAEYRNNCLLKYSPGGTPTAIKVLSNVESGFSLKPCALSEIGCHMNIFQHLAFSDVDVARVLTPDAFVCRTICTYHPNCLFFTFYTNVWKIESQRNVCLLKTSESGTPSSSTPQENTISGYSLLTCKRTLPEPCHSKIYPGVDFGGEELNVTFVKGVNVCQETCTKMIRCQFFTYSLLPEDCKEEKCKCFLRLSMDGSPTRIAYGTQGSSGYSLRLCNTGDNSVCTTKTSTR
Sequence of human plasma kallikrein (P03952 391-638, chain 2 of 2): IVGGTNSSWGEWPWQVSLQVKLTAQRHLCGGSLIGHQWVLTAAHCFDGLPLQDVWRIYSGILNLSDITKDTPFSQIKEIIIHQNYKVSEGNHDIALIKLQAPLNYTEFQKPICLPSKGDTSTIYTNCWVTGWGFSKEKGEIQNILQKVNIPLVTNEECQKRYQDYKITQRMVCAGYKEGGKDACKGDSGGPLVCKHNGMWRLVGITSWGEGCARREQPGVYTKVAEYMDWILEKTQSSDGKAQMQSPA

% inhibition at 10 nM [%] | Binder
89.8 | M209-G07 (Fab, V domains shown) VH: EVQLLESGGGLVQPGGSLRLSCAASGFTFSHYLMTWVRQAPGKGLEWVSYISPSGGHTIYADSVKGRFTISRDNSKNTLYLQMNSLRAEDTAVYYCARVARGIAARSRTSYFDTWGQGTLVTVSS VL: DIQMTQSPGTLSLSPGERATLSCRTSQFVNSNYLAWYQQTPGQAPRLLIYGASSRATGIPDRFSGTGYGTDFTLTISRLEPEDYGTYYCQQSSRTPWTFGQGTRVEIK
89.5 | M204-A02 (Fab, V domains shown) VH: EVQLLESGGGLVQPGGSLRLSCAASGFTFSDYMMTWVRQAPGKGLQWVSYISPSGGLTSYADSVKGRFTISRDNSKNTLYLQMNSLRAEDTAVYYCARVARGIAARSRTSYFDYWGQGTLVTVSS VL: DIQMTQSPGTLSLSPGERATLSCRTSQFVNSNYLAWYQQTPGQAPRLLIYGASSRATGIPDRFSGTGYGTDFTLTISRLEPEDYGTYYCQQSSRTPWTFGQGTRVEIK
87.6 | M206-H01 (Fab, V domains shown) VH: EVQLLESGGGLVQPGGSLRLSCAASGFTFSEYMMVWVRQAPGKGLEWVSRISPSGGTTEYADSVKGRFTISRDNSKNTLYLQMNSLRAEDTAVYYCARVARGIAARSRTSYFDYWGQGTLVTVSS VL: DIQMTQSPGTLSLSPGERATLSCRTSQFVNSNYLAWYQQTPGQAPRLLIYGASSRATGIPDRFSGTGYGTDFTLTISRLEPEDYGTYYCQQSSRTPWTFGQGTRVEIK
87.3 | M209-B11 (Fab, V domains shown) VH: EVQLLESGGGLVQPGGSLRLSCAASGFTFSHYLMTWVRQAPGKGLEWVSYISPSGGHTIYADSVKGRFTISRDNSKNTLYLQMNSLRAEDTAVYYCARVARGIAARSRTRYIDQWGQGTLVTVSS VL: DIQMTQSPGTLSLSPGERATLSCRTSQFVNSNYLAWYQQTPGQAPRLLIYGASSRATGIPDRFSGTGYGTDFTLTISRLEPEDYGTYYCQQSSRTPWTFGQGTRVEIK
86.8 | M206-F09 (Fab, V domains shown) VH: EVQLLESGGGLVQPGGSLRLSCAASGFTFSVYMMSWVRQAPGKGLEWVSSIVPSGGSTTYADSVKGRFTISRDNSKNTLYLQMNSLRAEDTAVYYCARVARGIAARSRTSYFDYWGQGTLVTVSS VL: DIQMTQSPGTLSLSPGERATLSCRTSQFVNSNYLAWYQQTPGQAPRLLIYGASSRATGIPDRFSGTGYGTDFTLTISRLEPEDYGTYYCQQSSRTPWTFGQGTRVEIK
86.8 | M209-C02 (Fab, V domains shown) VH: EVQLLESGGGLVQPGGSLRLSCAASGFTFSHYLMTWVRQAPGKGLEWVSYISPSGGHTIYADSVKGRFTISRDNSKNTLYLQMNSLRAEDTAVYYCARVARGIAYRRRTSYFDYWGQGTLVTVSS VL: DIQMTQSPGTLSLSPGERATLSCRTSQFVNSNYLAWYQQTPGQAPRLLIYGASSRATGIPDRFSGTGYGTDFTLTISRLEPEDYGTYYCQQSSRTPWTFGQGTRVEIK
86.7 | M208-G02 (Fab, V domains shown) VH: EVQLLESGGGLVQPGGSLRLSCAASGFTFSHYLMTWVRQAPGKGLEWVSYISPSGGHTIYADSVKGRFTISRDNSKNTLYLQMNSLRAEDTAVYYCARVARGIADRSRTSYSDYWGQGTLVTVSS VL: DIQMTQSPGTLSLSPGERATLSCRTSQFVNSNYLAWYQQTPGQAPRLLIYGASSRATGIPDRFSGTGYGTDFTLTISRLEPEDYGTYYCQQSSRTPWTFGQGTRVEIK
86.5 | M205-C11 (Fab, V domains shown) VH: EVQLLESGGGLVQPGGSLRLSCAASGFTFSQYMMMWVRQAPGKGLEWVSRISPSGGSTLYADSVKGRFTISRDNSKNTLYLQMNSLRAEDTAVYYCARVARGIAARSRTSYFDYWGQGTLVTVSS VL: DIQMTQSPGTLSLSPGERATLSCRTSQFVNSNYLAWYQQTPGQAPRLLIYGASSRATGIPDRFSGTGYGTDFTLTISRLEPEDYGTYYCQQSSRTPWTFGQGTRVEIK
85.9 | M205-H08 (Fab, V domains shown) VH: EVQLLESGGGLVQPGGSLRLSCAASGFTFSDYMMMWVRQAPGKGLEWVSSIVPSGGHTQYADSVKGRFTISRDNSKNTLYLQMNSLRAEDTAVYYCARVARGIAARSRTSYFDYWGQGTLVTVSS VL: DIQMTQSPGTLSLSPGERATLSCRTSQFVNSNYLAWYQQTPGQAPRLLIYGASSRATGIPDRFSGTGYGTDFTLTISRLEPEDYGTYYCQQSSRTPWTFGQGTRVEIK
85.5 | M210-H01 (Fab, V domains shown) VH: EVQLLESGGGLVQPGGSLRLSCAASGFTFSHYLMTWVRQAPGKGLEWVSYISPSGGHTIYADSVKGRFTISRDNSKNTLYLQMNSLRAEDTAVYYCARVARGIAARSRNSQQDYWGQGTLVTVSS VL: DIQMTQSPGTLSLSPGERATLSCRTSQFVNSNYLAWYQQTPGQAPRLLIYGASSRATGIPDRFSGTGYGTDFTLTISRLEPEDYGTYYCQQSSRTPWTFGQGTRVEIK
85.4 | M209-D12 (Fab, V domains shown) VH: EVQLLESGGGLVQPGGSLRLSCAASGFTFSHYLMTWVRQAPGKGLEWVSYISPSGGHTIYADSVKGRFTISRDNSKNTLYLQMNSLRAEDTAVYYCATVARGIAARSRTSYFDQWGQGTLVTVSS VL: DIQMTQSPGTLSLSPGERATLSCRTSQFVNSNYLAWYQQTPGQAPRLLIYGASSRATGIPDRFSGTGYGTDFTLTISRLEPEDYGTYYCQQSSRTPWTFGQGTRVEIK
85.3 | M209-H09 (Fab, V domains shown) VH: EVQLLESGGGLVQPGGSLRLSCAASGFTFSHYLMTWVRQAPGKGLEWVSYISPSGGHTIYADSVKGRFTISRDNSKNTLYLQMNSLRAEDTAVYYCARVARGIAARSRTVYFDHWGQGTLVTVSS VL: DIQMTQSPGTLSLSPGERATLSCRTSQFVNSNYLAWYQQTPGQAPRLLIYGASSRATGIPDRFSGTGYGTDFTLTISRLEPEDYGTYYCQQSSRTPWTFGQGTRVEIK
84.1 | M204-E12 (Fab, V domains shown) VH: EVQLLESGGGLVQPGGSLRLSCAASGFTFSTYMMQWVRQAPGKGLEWVSYIGPSGGKTDYADSVKGRFTISRDNSKNTLYLQMNSLRAEDTAVYYCARVARGIAARSRTSYFDYWGQGTLVTVSS VL: DIQMTQSPGTLSLSPGERATLSCRTSQFVNSNYLAWYQQTPGQAPRLLIYGASSRATGIPDRFSGTGYGTDFTLTISRLEPEDYGTYYCQQSSRTPWTFGQGTRVEIK
82.6 | M209-H03 (Fab, V domains shown) VH: EVQLLESGGGLVQPGGSLRLSCAASGFTFSHYLMTWVRQAPGKGLEWVSYISPSGGHTIYADSVKGRFTISRDNSKNTLYLQMNSLRAEDTAVYYCARVAQGIAARSRTTQFDYWGQGTLVTVSS VL: DIQMTQSPGTLSLSPGERATLSCRTSQFVNSNYLAWYQQTPGQAPRLLIYGASSRATGIPDRFSGTGYGTDFTLTISRLEPEDYGTYYCQQSSRTPWTFGQGTRVEIK
82.5 | M206-H05 (Fab, V domains shown) VH: EVQLLESGGGLVQPGGSLRLSCAASGFTFSGYKMQWVRQAPGKGLEWVSSISPSGGITMYADSVKGRFTISRDNSKNTLYLQMNSLRAEDTAVYYCARVARGIAARSRTSYFDYWGQGTLVTVSS VL: DIQMTQSPGTLSLSPGERATLSCRTSQFVNSNYLAWYQQTPGQAPRLLIYGASSRATGIPDRFSGTGYGTDFTLTISRLEPEDYGTYYCQQSSRTPWTFGQGTRVEIK
80.3 | M205-A02 (Fab, V domains shown) VH: EVQLLESGGGLVQPGGSLRLSCAASGFTFSTYLMAWVRQAPGKGLEWVSGIVSSGGRTLYADSVKGRFTISRDNSKNTLYLQMNSLRAEDTAVYYCARVARGIAARSRTSYFDYWGQGTLVTVSS VL: DIQMTQSPGTLSLSPGERATLSCRTSQFVNSNYLAWYQQTPGQAPRLLIYGASSRATGIPDRFSGTGYGTDFTLTISRLEPEDYGTYYCQQSSRTPWTFGQGTRVEIK
78.5 | M208-A10 (Fab, V domains shown) VH: EVQLLESGGGLVQPGGSLRLSCAASGFTFSHYLMTWVRQAPGKGLEWVSYISPSGGHTIYADSVKGRFTISRDNSKNTLYLQMNSLRAEDTAVYYCARVARGIAARSRTSQFDHWGQGTLVTVSS VL: DIQMTQSPGTLSLSPGERATLSCRTSQFVNSNYLAWYQQTPGQAPRLLIYGASSRATGIPDRFSGTGYGTDFTLTISRLEPEDYGTYYCQQSSRTPWTFGQGTRVEIK
78.2 | M205-E11 (Fab, V domains shown) VH: EVQLLESGGGLVQPGGSLRLSCAASGFTFSNYTMGWVRQAPGKGLEWVSSISPSGGKTDYADSVKGRFTISRDNSKNTLYLQMNSLRAEDTAVYYCARVARGIAARSRTSYFDYWGQGTLVTVSS VL: DIQMTQSPGTLSLSPGERATLSCRTSQFVNSNYLAWYQQTPGQAPRLLIYGASSRATGIPDRFSGTGYGTDFTLTISRLEPEDYGTYYCQQSSRTPWTFGQGTRVEIK
77.6 | M206-E02 (Fab, V domains shown) VH: EVQLLESGGGLVQPGGSLRLSCAASGFTFSEYMMMWVRQAPGKGLEWVSVISPSGGQTHYADSVKGRFTISRDNSKNTLYLQMNSLRAEDTAVYYCARVARGIAARSRTSYFDYWGQGTLVTVSS VL: DIQMTQSPGTLSLSPGERATLSCRTSQFVNSNYLAWYQQTPGQAPRLLIYGASSRATGIPDRFSGTGYGTDFTLTISRLEPEDYGTYYCQQSSRTPWTFGQGTRVEIK
77.1 | M205-H01 (Fab, V domains shown) VH: EVQLLESGGGLVQPGGSLRLSCAASGFTFSNYTMQWVRQAPGKGLQWVSYISPSGGYTGYADSVKGRFTISRDNSKNTLYLQMNSLRAEDTAVYYCARVARGIAARSRTSYFDYWGQGTLVTVSS VL: DIQMTQSPGTLSLSPGERATLSCRTSQFVNSNYLAWYQQTPGQAPRLLIYGASSRATGIPDRFSGTGYGTDFTLTISRLEPEDYGTYYCQQSSRTPWTFGQGTRVEIK
76.6 | M207-A02 (Fab, V domains shown) VH: EVQLLESGGGLVQPGGSLRLSCAASGFTFSHYLMTWVRQAPGKGLEWVSYISPSGGHTIYADSVKGRFTISRDNSKNTLYLQMNSLRAEDTALYYCARVARGIAARSRTINLDYWGQGTLVTVSS VL: DIQMTQSPGTLSLSPGERATLSCRTSQFVNSNYLAWYQQTPGQAPRLLIYGASSRATGIPDRFSGTGYGTDFTLTISRLEPEDYGTYYCQQSSRTPWTFGQGTRVEIK
